Data as given in patent US20220267402A1 (SERPENTIDE, published 2022).
One block for each molecule: values may come before it.

Tests used:
[1] = target: human GLP1 receptor (on HEK293-CNG-HuGLP1R stable cells) (human) (UniProt P43220); test: cell-based or functional assay
[2] = target: human GLP1 receptor (on HEK293-CNG-HuGLP1R stable cells) (human, UniProt P43220 24-463); test: cell-based or functional assay

- EC50, cAMP bioassay on HEK293-CNG-HuGLP1R cells [1]: 22 nM
Molecule: Eli Lilly Trulicity (Lot#02448599) (Fc fusion)

- EC50, cAMP bioassay on HEK293-CNG-HuGLP1R cells (after Factor Xa predigestion) [2]: 17.6 nM
B1: p9: hGLP1R ECD (1-116)-3xG4S-RGER-Trulicity (lot U2243DL140-14/P9EA001) (Fc fusion)
chain: RPQGATVSLWETVQKWREYRRQCQRSLTEDPPPATDLFCNRTFDEYACWPDGEPGSFVNVSCPWYLPWASSVPQGHVYRFCTAEGLWLQKDNSSLPWRDLSECEESKGGGGSGGGGSGGGGSRGERHGEGTFTSDVSSYLEEQAAKEFIAWLVKGGGGGGGSGGGGSGGGGSAESKYGPPCPPCPAPEAAGGPSVFLFPPKPKDTLMISRTPEVTCVVVDVSQEDPEVQFNWYVDGVEVHNAKTKPREEQFNSTYRVVSVLTVLHQDWLNGKEYKCKVSNKGLPSSIEKTISKAKGQPREPQVYTLPPSQEMTKNQVSLTCLVKGFYPSDIAVEWESNGQPENNYKTTPPVLDSDGSFFLYSRLTVDKSRWQEGNVFSCSVMHEALHNHYTQKSLSLSLG
